Source: US20230287369A1, “A NEW, NON-SPECIFIC THERMOLABILE NUCLEASE ACTIVE AT LOW TEMPERATURE, IN WIDE PH RANGE AND HIGH CONCENTRATION IN SALTS” (Blirt S.A., priority 2019, published 2023)

Key:
Format in all cases: biochemical
pUC19 plasmid DNA [1] = test: Thermal inactivation of PPR enzymatic activity in the presence of DTT, plasmid DNA degradation on agarose gel; details: incubation for 15 minutes in the presence of 1-5 mM DTT
Experimental: FIG. 5—showing PPR inactivation in various temperature conditions in the presence of 5 mM DTT. Complete PPR inactivation is obtained at 52° C.
(§1) In order to determine PPR nuclease nucleolytic activity serial dilutions of the enzyme are incubated in a reaction buffer containing 20 mM Tris-HCl (pH 8.0), 20 mM MgCb and 1 pg pUC19 plasmid DNA of 20 m ? volume for 10 min. The reaction is stopped by adding 5 m ? 25 mM DTT solution to a final concentration of 5 mM and the sample is heated to 55° C. for 10 min. As a control, 1 pg of pUC19 plasmid DNA is incubated without the addition of nuclease. Subsequently, the samples are loaded onto a 1% agarose gel and DNA separation is performed in gel at 130 voltage for 40 min. The remaining, nondegraded DNA in gel is stained with ethidium bromide and documented by taking a photography of the gel. 1 U activity is determined as the enzyme quantity essential for total degradation of 1 pg of pUC19 plasmid DNA in 10 min. at 37° C.
To determine the parameters of PPR nuclease inactivation series of 0.2 ml test probes for PCR are prepared containing 100 U PPR in a 50 m ? reaction buffer containing 5 mM DTT, as described in Example 4A, excluding pUCIO plasmid DNA. Afterwards, the probes are incubated for 15 minutes at relevant temperatures and then for 5 minutes on ice. […] The degree of plasmid DNA degradation in the trials is analyzed on an agarose gel.

[2] = test system: herring sperm genomic DNA; test: Nucleolytic (specific) activity of PPR nuclease, modified Kunitz's test: effect of pH, temperature and Mg2+
Experimental: FIG. 2—showing pH influence on PPR nucleolytic activity depending on NaCl salt concentration. Measurement using modificated Kunitz's test, conditions: 20 mM MgCh, temperature of 22° C.
FIG. 3—showing temperature and high salts (500 mM NaCl+100 mM MgCL) influence on PPR nucleolytic activity. Measurement using modificated Kunitz's test.
FIG. 4—showing influence of Mg^2, ions on PPR nucleolytic activity in selected pH and temperature conditions. Maximum PPR activity is obtained at 50-150 mM concentration at 37° C. in a pH 8.0 buffer.
(§2) In order to determine PPR nuclease specific activity serial dilutions of the enzyme are incubated in a reaction buffer containing 20 mM Tris-HCl (pH 8.0), 20 mM MgCh and 100 pg of herring sperm genomic DNA of 300 m ? volume at 37° C. for 30 min. The reaction is stopped by adding 300 m ? 4% solution of perchloric acid to 2% final concentration and sample incubation on ice for 60 min. As a control, 100 pg DNA is incubated without the addition of nuclease. Afterwards, the samples are centrifuged for 10 minutes until separation of the precipitate of non-degraded DNA. The content of free nucleotides and oligonucleotide fragments smaller than 10 bp is determined in supernatant by measuring absorbance at 260 nm wavelength. 1 U nuclease activity is determined as enzyme quantity causing increase of absorbance in the studied sample at 260 nm wavelength of 1.0 within 30 minutes of reaction at 37° C.
In order to determine optimal pH for enzyme nucleolytic activity reaction is conducted as described in Example 4. The solutions of pH 6.0-10.0 with 1 U enzyme in reaction mixtures containing 0, 250, 500 mM NaCl, respectively.
The determination of the optimal temperature for enzyme nucleolytic activity reaction is performed as described in Example 4 at various temperatures from 6° C. to 45° C. with 1 U enzyme in the reaction mixture containing 50 mM Tris, pH 8.0 and variable concentrations of MgCh (5 mM and 100 mM). […] It needs to be highlighted that in these conditions 100% of standard activity may be obtained in refrigerated conditions at 6° C., by applying the relevant salt concentration: NaCl (500 mM) and MgCh (100 mM).
To determine the effects of Mg^2+ ion concentration on PPR nucleolytic activity reaction is performed as described in Example 4 in solutions of varied content of Mg^2+ ions; 5 mM to 200 mM with 1 U enzyme in the reaction mixture. […] In all observed ranges of MgCh (5-200 mM) PPR concentrations show high specific activity.

[3] = test system: herring sperm genomic DNA; test: Nucleolytic activity of PPR, HL-SAN, Benzonase nucleases in DMEM medium
Experimental: FIG. 7—showing the comparison of values of the PPR, HL-SAN and Benzonase® nucleases' nucleolytic activities in DMEM medium, commonly used for mammalian in vitro cell culture, in which recombinant proteins, virus vectors and other biological therapeutics are produced.
as §2
Determination of the nucleolytic activity of PPR, HL-SAN and Benzonase® nucleases are performed as described in Example 4 at various temperatures: 6° C., 22° C. and 37° C. but instead of a reaction buffer DMEM medium (commonly used in cultures of mammalian cells, e.g. CHO, HEK, for the production of recombinant proteins and virus vectors) is used. […] At 37° C. […] The activity for every enzyme in conditions recommended by the manufacturer was assumed as 100% activity.

[4] = test system: herring sperm genomic DNA; test: Nucleolytic activity of PPR, HL-SAN, Benzonase nucleases in PBS and TBS buffers; details: PBS, TBS and TBS with 500 mM NaCl; 6° C., 22° C. and 37° C.
Experimental: FIG. 8—showing the comparison of values of the PPR, HL-SAN and Benzonase® nucleases' nucleolytic activities in buffers with similar physiological salt concentration (PBS and TBS) with the addition of 500 mM NaCl, commonly used in the methodology of recombinant protein purification.
(§3) In order to determine PPR nuclease specific activity serial dilutions of the enzyme are incubated in a reaction buffer containing 20 mM Tris-HCl (pH 8.0), 20 mM MgCh and 100 pg of herring sperm genomic DNA of 300 m ? volume at 37° C. for 30 min. The reaction is stopped by adding 300 m ? 4% solution of perchloric acid to 2% final concentration and sample incubation on ice for 60 min. As a control, 100 pg DNA is incubated without the addition of nuclease. Afterwards, the samples are centrifuged for 10 minutes until separation of the precipitate of non-degraded DNA. The content of free nucleotides and oligonucleotide fragments smaller than 10 bp is determined in supernatant by measuring absorbance at 260 nm wavelength. 1 U nuclease activity is determined as enzyme quantity causing increase of absorbance in the studied sample at 260 nm wavelength of 1.0 within 30 minutes of reaction at 37° C. […]

[5] = test system: herring sperm genomic DNA; test: Nucleolytic activity of PPR, HL-SAN, Benzonase nucleases in buffers of varied salt concentration and pH
Experimental: FIG. 6—showing the comparison of nucleolytic activity values of PPR, HL-SAN and Benzonase® nucleases in buffers of various NaCl concentrations (0, 250, 500 mM), in pH 7.0, 8.0, 9.0, respectively. The remaining reaction conditions are as follows: temperature 22° C., 50 mM Tris, 20 mM MgCk (5 mM MgCk used for Benzonase®). […] The advantage of PPR over the HL-SAN nuclease, whose characteristics are the most similar, increases in correlation with decreasing pH (7.0-8.0).
as §3

pUC19 plasmid DNA [6] = test: Effects of potential inhibitors (salts, urea, imidazole) on PPR nucleolytic activity
Experimental: as §1, §2
To determine the scope of enzyme tolerance to popular ion components used in the preparation of recombinant proteins, present in the reaction buffer, a nucleolytic reaction is performed as described in Example 4 in solutions of various amounts of individual potential inhibitors: NaCl, urea, ammonium sulphate, imidazole. The PPR nuclease retains high nucleolytic activity in the presence of increased concentrations of tested substances, as shown in Table 1.

B1: PPR nuclease: non-specific nuclease that is the subject matter of the invention of SEQ ID NO: 2; thermolabile, recombinant, produced in E. coli (protein)
chain: MKYLLPTAAAGLLLLAAQPAMAASMEHHHHHHGSENLYFQSAPPSSFSKAKRLAVEIYQDHPTSFYCGCAITWQGKKGLPDLASCGYEVRKQEKRANRIEWEHVVPAENFGRAFVEWREGHPQCVNSKGKAYKGRSCATKMNPTYRSMQADLHNLTPAVGEVNGDRSNYAFLPWNGNNGAFYGQCDMKIDFKNRRADPPEQSRGAIARTYLYMNQEYKMALSSQQRQLMEAWNRQYPISTWECERDRRIANIQDNHNSFVLQACKKAGY
temperature of irreversible inactivation (pUC19 plasmid DNA [1]): 52 °C
pH of highest nucleolytic activity ([2]; 500 mM NaCl, tested pH 6.0-10.0 at 0, 250, 500 mM NaCl, 20 mM MgCl2, 22° C., 1 U enzyme): 8.0
nucleolytic activity over tested temperature range ([2]; 6° C. to 45° C., 50 mM Tris, pH 8.0): maintains nucleolytic activity in the whole range of the tested temperatures
MgCl2 concentration range with high specific activity / enzyme active ([2]; MgCl2): 5 to 200 mM
temperature of highest nucleolytic activity ([2]; NaCl (500 mM) and MgCl2 (100 mM), 50 mM Tris, pH 8.0, tested 6° C. to 45° C.): 37 °C
Mg2+ concentration of highest nucleolytic activity ([2]; pH 6.5): 20 mM
optimum Mg2+ concentration range for nucleolytic activity ([2]; pH 6.5 buffer, ambient temperature (22° C.)): 20 to 50 mM
Mg2+ concentration of highest nucleolytic activity ([2]; pH 8.0): 150 mM
optimum Mg2+ concentration range for nucleolytic activity ([2]; pH 8.0 buffer, 37° C.): 50 to 150 mM
nucleolytic activity relative to standard activity ([2]; refrigerated conditions at 6° C., NaCl (500 mM) and MgCl2 (100 mM)): 100 % of standard activity
nucleolytic activity relative to Benzonase nuclease ([3]; 37° C.): six times more active
nucleolytic activity compared with the other tested enzymes ([3]; all tested temperatures (6° C., 22° C., 37° C.)): highest nucleolytic activity of all tested enzymes
nucleolytic activity relative to HL-SAN and Benzonase ([3]; refrigerated conditions (6° C.) and ambient temperature (22° C.)): approx three times more active
nucleolytic activity compared with the other tested enzymes [4]: highest nucleolytic activity of all tested enzymes
nucleolytic activity compared with the other tested nucleases ([5]; 250 and 500 mM NaCl, pH 7.0, 8.0 and 9.0, 22° C., 50 mM Tris, 20 mM MgCl2): highest nucleolytic activity of all tested nucleases
nucleolytic activity compared with HL-SAN and Benzonase ([5]; lower pH (7.0, 8.0) and ambient temperature (22° C.)): significantly more active
Non-inhibiting concentration (pUC19 plasmid DNA [6]; Ammonium sulphate): 0 to 200 mM
Non-inhibiting concentration (pUC19 plasmid DNA [6]; Imidazole): 0 to 400 mM
Non-inhibiting concentration (pUC19 plasmid DNA [6]; NaCl/KCl): 0 to 1400 mM
Non-inhibiting concentration (pUC19 plasmid DNA [6]; Urea): 0 to 6000 mM
